Source: patent publication KR20230010676A (dated 2023)
Like-named read-outs stand apart in the source and are kept apart here.

Tests used:
[1] = molecular target: T1, SARS-CoV-2 RBD (정제된, SPR) (SARS-CoV-2 (Wuhan-Hu-1), UniProt P0DTC2 331-550)
[2] = molecular target: T1, SARS-CoV-2 RBD (정제된, SPR); remark: listed apart in the source
[3] = molecular target: T1, SARS-CoV-2 RBD (정제된, SPR); assay: SPR, Biacore T200; ratio against S2E12 WT
[4] = molecular target: T2, SARS-CoV-2 RBD (자체 생산, BetaCoV/Wuhan-Hu-1/2019 스파이크의 잔기 331 내지 550, 수탁 번호 MN908947) (SARS-CoV-2 (BetaCoV/Wuhan-Hu-1/2019), UniProt P0DTC2 331-550); assay: ELISA, RBD coated on plate, serial dilutions of recombinant mAb
T2 construct: range 331-550; also called SARS-CoV-2 스파이크 단백질 RBD

[5] = molecular target: T1, SARS-CoV-2 RBD (정제된, SPR); assay: SPR, Biacore T200, single-cycle kinetics, antibody captured, RBD injected
[6] = molecular target: T1, SARS-CoV-2 RBD (정제된, SPR); assay: SPR, Biacore T200; ratio against S2E12 WT; remark: listed apart in the source
[7] = molecular target: SARS-CoV-2 스파이크 단백질 (SARS-CoV-2, UniProt P0DTC2 14-1273); assay: cell-based or functional assay
[8] = molecular target: T2, SARS-CoV-2 RBD (자체 생산, …); assay: ELISA, RBD coated on plate, serial dilutions of recombinant mAb; remark: listed apart in the source
[9] = molecular target: T3, SARS-CoV RBD (Sino Biological) (SARS-CoV (SARS-CoV-1), UniProt P59594 306-527); assay: as above
T3 construct: domain: RBD; also called SARS-CoV-1 RBD; SARS-CoV-1 스파이크 단백질 RBD

[10] = molecular target: T3, SARS-CoV RBD (Sino Biological); assay: ELISA, RBD coated on plate

Binder	Kd [2] [nM]	KD_WT/KD [3]	Kd [5] [nM]	koff [5] [s⁻¹]	kon [5] [M⁻¹ s⁻¹]	IC50 (neutralisation) [7] [ng/mL]	IC80 (neutralisation) [7] [ng/mL]	IC90 (neutralisation) [7] [ng/mL]	other results
S2E12 (antibody, V domains shown, also called S2E12 WT; S2E12 wt) VH: not shown VL: DIVLTQTPGTLSLSPGERATLSCRASQSVSSSYLAWYQQKPGQAPRLLIYGASSRATGIPDRFSGSGSGTDFTLTISRLEPEDFAVYYCQQYVGLTGWTFGQGTKVEIK	2.28	1	1.18	0.00233	1.98e+06				Kd [1]: 1.31 nM; koff [1]: 0.00317 s⁻¹; kon [1]: 2.42e+06 M⁻¹ s⁻¹; EC50 [4]: 0.0434 µg/mL
409_11_4_v13 (antibody, V domains shown) VH: not shown VL: DIVLTQTPGTLSLSPGERATLSCRASQSVSSSYLAWYQQKPGQAPRLLIYGASSRATGIPDRFSGSGSGTDFTLTISRLEPEDFAVYYCQQYVGLTGWTFGQGTKVEIK	51.4	0.04							
409_11_4_v5 (antibody, V domains shown) VH: not shown VL: DIVLTQTPGTLSLSPGERATLSCRASQSVSSSYLAWYQQKPGQAPRLLIYGASSRATGIPDRFSGSGSGTDFTLTISRLEPEDFAVYYCQQYVGLTGWTFGQGTKVEIK			13.3	0.0358	2.68e+06				KD/KD_WT [6]: 0.098
409_11_4_v12 (antibody, V domains shown) VH: not shown VL: DIVLTQTPGTLSLSPGERATLSCRASQSVSSSYLAWYQQKPGQAPRLLIYGASSRATGIPDRFSGSGSGTDFTLTISRLEPEDFAVYYCQQYVGLTGWTFGQGTKVEIK	45.3	0.05							
409_11_4_v2 (antibody, V domains shown, also called S2E12-v2) VH: not shown VL: DIVLTQTPGTLSLSPGERATLSCRASQSVSSSYLAWYQQKPGQAPRALIYGASSRATGIPDRFSGSGSGTDFTLTISRLEPEDFAVYYCQQYVGLTGWTFGQGTKVEIK	0.788	2.89							
409_11_4_v7 (antibody, V domains shown) VH: not shown VL: DIVLTQTPGTLSLSPGERATLSCRASQSVSSSYLAWYQQKPGQAPRLLIYGASSRATGIPDRFSGSGSGTDFTLTISRLEPEDFAVYYCQQYVGLTGWTFGQGTKVEIK			4.9	0.00913	1.86e+06				KD/KD_WT [6]: 0.267
409_11_4_v6 (antibody, V domains shown) VH: not shown VL: DIVLTQTPGTLSLSPGERATLSCRASQSVSSSYLAWYQQKPGQAPRLLIYGASSRATGIPDRFSGSGSGTDFTLTISRLEPEDFAVYYCQQYVGLTGWTFGQGTKVEIK	20.4	0.11							
409_11_4_v4 (antibody, V domains shown) VH: not shown VL: DIVLTQTPGTLSLSPGERATLSCRASQSVSSSYLAWYQQKPGQAPRLLIYGASSRATGIPDRFSGSGSGTDFTLTISRLEPEDFAVYYCQQYVGLTGYTFGQGTKVEIK	25.9	0.09							
409_11_4_v3 (antibody, V domains shown) VH: not shown VL: DIVLTQTPGTLSLSPGERATLSCRASQSVSSSYLAWYQQKPGQAPRLLIYGASSRATGIPDRFSGSGSGTDFTLTISRLEPEDFAVYYCQQYVGLTGFTFGQGTKVEIK			13	0.0153	1.18e+06				KD/KD_WT [6]: 0.1
S2X35 (antibody, V domains shown, also called S2X35-11) VH: QVQLVQSGAEVKKPGASVKVSCKASGYTFTNYGISWVRQAPGQGLEWMGWISAYKGNTNYAQKLQGRVTMTTDTSTSTAYMELRSLRSDDTAVYYCARPDYQVLGYDFWIGYYGMDVWGQGTTVIVSS VL: QSVLTQPPSVSGAPGQRVTISCTGSSSNIGAGYDVHWYQQLPGTAPKLLIYGNTNRPSGVPDRFSGSKSGTSASLAITGLQAEDEADYYCQSYDSSLSGSEVVFGGGTKLTVL						92	320	661	EC50 [8]: 0.0483 µg/mL; EC50 [9]: 0.0846 µg/mL
S2X16 (antibody, V domains shown, also called S2X16-11) VH: EVQLVQSGAEVKKPGASVKVSCKASGYIFTDHYMHWVRQAPGQGLEWMGWINPNSGGTNYAQKFQGRVTMTRDTSINTAYMELSRLRSDDTAVHYCARDRSRFRFFSPDFDYWGQGTLVTVSS VL: not shown						6	22	46	binding result [10]: no binding
S2X47 (antibody, V domains shown, also called S2X47-11) VH: QVQLQESGPGLVKPSQTLSLTCTVSGGSISSRSYYWSWIRQPAGKGLEWIGRIYTSGNTNYNPSLRSRVTISVDTSKNQFSLKLGSVTAADTAVYYCARERIIGTAHVGGWFDPWGQGTLVTVSS VL: not shown						3	12	25	binding result [10]: no binding; EC50 [8]: 0.092 µg/mL
S2X30 (antibody, V domains shown, also called S2X30-11) VH: EVQLVQSGAEVKKPGSSVKVSCKASGGTFGSYTISWVRQAPGQGLEWMGRIIPILSIPNYAQKFQGRVTFTADKSTSTAYMELSSLRSEDTAVYYCARGGGGTHAVPHYYFDSWGQGTLVTVSS VL: EIVMMQSPATLSVSPGERATLSCRASQSVSSNLAWYQHKPGQAPRLLIYGASTRATGIPARFSGSGSGTEFTLTISSMQSEDFAVYYCQQYNNWPFTFGGGTKVEIK						15	31	46	binding result [10]: no binding
